# Assay results as given in the RNAGym collection of RNA variant scans (doi:10.7554/elife.80360).
# B1: Hairpin Ribozyme (parent)
# chain: GUCCUCUUUCACGUGCGCGUGAAAGAGAGAAGUGAACCAGAGAAACACACGUUGUGGUAUAUUACCUGGUA
# Variants of: B1
# Test: self-cleavage, relative activity (ratio to wild type); higher = more cleavage; co-transcriptional
row,Variant,self-cleavage
1,G17A A23G,0.824
2,U2A G25C,0.171
3,C37G A47C,0.14
4,U7A U53C,1.07
5,C16U A44G,0.101
6,G51A A71G,0.934
7,G42U C50U,0.197
8,A45U U63G,0.0513
9,U20A A22C,0.373
10,G17A A39G,0.319
11,A26C G57A,0.141
12,A30G G32A,0.137
13,A31U G68C,0.175
14,A23G G29A,0.0583
15,U8C G34A,1.18
16,C12A G29A,0.162
17,G1C C12G,0.188
18,A44C G56A,0.152
19,A39U A45C,0.123
20,C16U U63A,0.253
21,G19A,0.853
22,G32U C48G,0.188
23,U8C G21A,0.264
24,A11G C48U,0.144

row,Variant,self-cleavage
1,C12G G54U,0.537
2,G34C A39U,1.02
3,G34C U52C,1.6
4,C37U U55C,0.172
5,A30C U63A,0.267
6,C3U G54U,0.227
7,G32A C37A,0.115
8,A26U A39U,0.266
9,A61G U62C,0.0932
10,A43G U63A,0.134
11,U8A A24C,0.626
12,U2A U9C,0.233
13,G21U A31G,0.325
14,U7G A11U,0.58
15,U53G G54U,0.49
16,A30U U55G,0.106
17,C16U C37G,0.182
18,C4G G29A,0.0497
19,U58C U70A,0.897
20,U20G A41U,1.3
21,U58A U67A,0.273
22,U33A A49C,0.163
23,G15A U62G,0.109
24,G15A U62A,0.177

row,Variant,self-cleavage
1,U9A A71U,0.525
2,U7G A23G,0.752
3,C46A U55G,0.253
4,G29A A45C,0.0675
5,G15A A36C,0.815
6,A31G A71C,1.05
7,U33A U53C,0.264
8,C48A G56U,0.304
9,A36C G40U,0.122
10,A24C G32U,0.166
11,G15U A35U,0.842
12,C4A C48G,0.207
13,C10G A64G,0.397
14,A35U U52A,0.715
15,C4U C48A,0.114
16,G27U C38G,0.17
17,C12A U33A,0.158
18,G27C A35C,0.143
19,A45G A49U,0.172
20,U55A C66A,0.188
21,A35C A71U,0.668
22,A26C A59G,0.0796
23,U14A G17C,0.472
24,C6U C37A,0.286

row,Variant,self-cleavage
1,U20C C65G,0.472
2,C3A U53C,0.664
3,U8A U70A,0.665
4,G40A U70G,0.182
5,U33A U62A,0.148
6,C38U A44U,0.135
7,G19A A36C,0.511
8,C48A A64C,0.0601
9,U14A C38G,0.0908
10,G56A U62G,0.293
11,A31C U52G,0.0727
12,U20C A24G,0.758
13,A47U C66G,0.116
14,C38A U63A,0.0537
15,A11G A26G,0.751
16,C37G U52C,0.242
17,G42U C48U,0.132
18,G15A A39C,0.508
19,A11G C66U,0.619
20,U5A U52G,0.392
21,A22G C37G,0.291
22,C37U G54C,0.338
23,C10U A35U,0.568
24,U2G U60C,0.373

row,Variant,self-cleavage
1,C12U A23G,0.965
2,G15U U58A,0.831
3,U9A C65A,0.69
4,C16A U58C,0.937
5,C37U U62G,0.166
6,C12U C65G,0.2
7,G27C,0.172
8,G21U G40U,0.147
9,A39G G69U,0.122
10,U7A A26U,0.202
11,C6A U67A,0.144
12,C65U C66U,0.185
13,C48A U55C,0.144
14,A30G A61U,0.153
15,A11G C12G,0.788
16,A35C U52A,1.14
17,C4A U67C,0.0871
18,G57A U67A,0.2
19,G13C C66A,0.0627
20,C38A A44C,0.108
21,G40A U67C,0.121
22,A43C G54U,0.241
23,C4A G40A,0.133
24,A30C C37U,0.0704

row,Variant,self-cleavage
1,G25C U55G,0.13
2,G19A A24U,0.629
3,U52C A64C,0.128
4,G56U U60A,0.219
5,G56U U60C,0.135
6,G15C G21A,0.76
7,G57A A59U,0.0919
8,A26G A44G,0.241
9,C3G U52G,0.212
10,U8C G40U,0.164
11,G42U U60C,0.241
12,A35G U70A,0.927
13,G21C U70G,0.658
14,A39U C50U,0.204
15,C4G C12U,0.187
16,C6A C46U,0.171
17,A39C A45U,0.231
18,U62A C66A,0.12
19,A31C A71U,0.1
20,A28C G57C,0.145
21,G1U C46U,0.0565
22,A41C A47G,0.0213
23,C16A G21C,0.605
24,C16A G21A,0.67

row,Variant,self-cleavage
1,G21A G68C,0.15
2,G34U U70A,1.43
3,G34U U70C,1.43
4,G25A U55C,0.208
5,G15C U62A,0.14
6,A59U C66U,0.191
7,G29C,0.133
8,G13C U58A,0.35
9,U14C A41C,1.18
10,G56A A71G,0.245
11,C10U A26G,0.722
12,A41G G57C,0.172
13,U5G G27A,0.216
14,C6U A24G,0.353
15,A41U U55A,0.808
16,A41U U55C,0.762
17,G32C C50G,0.14
18,U33C G54U,0.141
19,G54C U62C,0.108
20,C3U C4A,0.0854
21,U5A C10G,0.129
22,U55C U70C,0.195
23,U2G C66A,0.147
